The text below walks through data of patent publication US20100303724A1 (UNIVERSITE PARIS DIDEROT PARIS 7, published 2010).

Bridge positions count the residues as written; N and C are the ends. * marks the point of attachment. Biotin = O=C1N[C@H]2[C@H](CS[C@H]2CCCCC(=O)*)N1

In general, Kd refers to the constant that tells how readily two partners part at equilibrium. Low readings indicate a tighter complex, high ones a looser complex.

The target of assay [1] is T1, soluble recombinant GPVI-Fc fusion protein (human, UniProt Q9HCN6 21-269, limits assumed).
T1 construct: also called recombinant soluble GPVI; recombinant soluble human GPVI-Fc; not shown: Fc part
T1 sequence (looked up): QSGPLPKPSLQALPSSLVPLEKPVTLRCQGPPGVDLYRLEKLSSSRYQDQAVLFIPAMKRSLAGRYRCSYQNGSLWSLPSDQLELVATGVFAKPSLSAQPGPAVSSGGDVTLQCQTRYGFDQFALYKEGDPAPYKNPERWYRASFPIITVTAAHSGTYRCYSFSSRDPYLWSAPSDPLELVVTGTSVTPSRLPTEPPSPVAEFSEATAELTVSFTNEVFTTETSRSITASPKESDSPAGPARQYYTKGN
Kind of assay: SPR; biotin-collagelin on a streptavidin sensorchip.

In assay [2] the target is T2, bovine fibrinogen (Sigma) (bovine, UniProt P02672 20-615; P02676 1-468; P12799 25-444, limits assumed).
T2 construct: Bought protein
T2 sequence (looked up) 1: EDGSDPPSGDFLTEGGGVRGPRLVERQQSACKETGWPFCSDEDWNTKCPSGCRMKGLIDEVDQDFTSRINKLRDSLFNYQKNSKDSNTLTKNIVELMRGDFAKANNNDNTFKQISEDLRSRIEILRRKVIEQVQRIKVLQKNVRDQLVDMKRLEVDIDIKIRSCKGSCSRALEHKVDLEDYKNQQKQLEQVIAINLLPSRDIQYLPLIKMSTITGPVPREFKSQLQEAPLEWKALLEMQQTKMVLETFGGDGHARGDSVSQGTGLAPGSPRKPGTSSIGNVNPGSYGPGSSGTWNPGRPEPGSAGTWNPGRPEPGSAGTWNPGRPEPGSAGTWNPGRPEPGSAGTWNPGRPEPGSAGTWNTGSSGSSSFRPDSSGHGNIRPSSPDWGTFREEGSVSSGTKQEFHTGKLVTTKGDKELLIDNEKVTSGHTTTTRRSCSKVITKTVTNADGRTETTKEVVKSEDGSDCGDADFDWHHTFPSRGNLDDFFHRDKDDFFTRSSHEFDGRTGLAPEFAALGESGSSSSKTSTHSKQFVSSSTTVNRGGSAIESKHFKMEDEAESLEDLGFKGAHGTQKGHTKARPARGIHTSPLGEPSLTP
T2 sequence (looked up) 2: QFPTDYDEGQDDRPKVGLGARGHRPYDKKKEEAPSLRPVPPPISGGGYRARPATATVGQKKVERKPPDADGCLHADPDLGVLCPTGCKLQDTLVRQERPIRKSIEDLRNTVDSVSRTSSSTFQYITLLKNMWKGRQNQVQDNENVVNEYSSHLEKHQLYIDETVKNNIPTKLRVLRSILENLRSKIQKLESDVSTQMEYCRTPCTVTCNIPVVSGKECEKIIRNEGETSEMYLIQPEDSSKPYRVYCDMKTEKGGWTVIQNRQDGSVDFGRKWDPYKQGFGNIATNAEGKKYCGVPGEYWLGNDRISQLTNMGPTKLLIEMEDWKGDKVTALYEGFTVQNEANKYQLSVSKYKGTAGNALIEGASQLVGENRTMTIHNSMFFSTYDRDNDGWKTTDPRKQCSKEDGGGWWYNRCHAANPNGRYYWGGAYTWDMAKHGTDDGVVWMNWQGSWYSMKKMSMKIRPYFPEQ
T2 sequence (looked up) 3: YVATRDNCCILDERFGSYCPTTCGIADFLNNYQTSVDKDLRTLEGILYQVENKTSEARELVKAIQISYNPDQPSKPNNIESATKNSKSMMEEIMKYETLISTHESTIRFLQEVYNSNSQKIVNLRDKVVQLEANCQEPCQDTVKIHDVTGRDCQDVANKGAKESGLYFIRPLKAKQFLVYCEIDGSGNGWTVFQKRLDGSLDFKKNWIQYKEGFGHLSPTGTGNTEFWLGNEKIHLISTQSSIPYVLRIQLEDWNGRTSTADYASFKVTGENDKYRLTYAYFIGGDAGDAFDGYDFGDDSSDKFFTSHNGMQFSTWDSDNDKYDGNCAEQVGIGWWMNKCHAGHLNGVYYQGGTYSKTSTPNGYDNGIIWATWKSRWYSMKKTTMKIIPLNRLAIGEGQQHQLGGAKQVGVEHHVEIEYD
Kind of assay: Solid phase assay: biotin-collagelin on coated fibrinogen, detected with peroxidase-coupled extravidin [panel B]. On the procedure: (§1) FIG. 3: Peptide Interaction with collagen and with different macromolecules: A Binding of collagelin to immobilized collagen in microtitration plates. biotin-collagelin or control peptide were incubated with immobilized fibrillar type I collagen and bound peptide was detected using peroxydase-coupled extravidine. In competition experiments collagelin was mixed with recombinant soluble GPVI (50 and 20 μg.mL−1), 9O12 IgGs (50 and 20 μg.mL−1) or 3J24.2 IgGs (50 μg.mL−1) prior to addition to collagen-coated wells. B: Binding of biotin-collagelin or control peptide (50 μg.mL−1) to immobilized fibrinogen, fibronectin, vitronectin and laminin. Coating of microtitration wells with the different proteins was performed as with collagen. Bound peptides were detected using peroxidase coupled extravidine.
(§2) Proteins [type I equine fibrillar collagen (Horm), bovine fibrinogen (Sigma), human fibronectin (Sigma), rat vitronectin (Sigma), murine laminin (Gibco), and bovine serum albumin (BSA Sigma)] were coated (1 μg/well) on microtitration plates (Immulon 2 Dynex vWR) for 24 hours at 4° C. After saturation of free sites with BSA, biotinylated FLIGPVI peptide (50 μg/ml) was added to the wells for 2 hours. The peptide bound to the wells was then detected using extravidin-HRP and orthophenyldiamine as substrate.

The target in assay [3] is T3, type I equine fibrillar collagen (Collagen Horm, Nycomed) (equine).
T3 construct: Bought fibrillar preparation; also called type I collagen; fibrillar type I collagen
Kind of assay: SPR; biotin-collagelin injected on collagen amine-coupled to a CM5 sensorchip. On the procedure:
FIG. 2: Interaction of the collagelin with collagen: A Collagen was injected on biotin-collagelin immobilized on a streptavidin coated sensorchip. ˜10 RU collagen were bound onto the collagelin coated surface (dark). The fit is also indicated (grey). Non-specific background signal from a control flow cell coated with an irrelevant peptide was deduced. B Binding of collagelin to immobilized collagen. Increasing quantities of biotin-collagelin (250, 500 μg.mL−1) were injected on a collagen immobilized on a CM5 sensorchip. Sensorgrams and interaction fits obtained with the peptide are shown in black and grey respectively. Non-specific background measured using an irrelevant peptide was deduced.
In other experiments, fibrillar collagen was manually immobilized on a CM5-sensorchip according to the manufacturer's instructions (Biacore, Uppsala, Sweden). The biotinylated peptide (125; 250, 500 and 1000 μg/mL) was injected on immobilized collagen at 25° C. with a flow rate of 20 μL.min−1. In competition experiments, the peptide was pre-incubated with recombinant soluble human GPVI-Fc or the 9O12.2 IgGs before injection onto the surface. The surface plasmon resonance intensity was monitored and data analyzed using BioEval2.0 (Biacore).
Using the streptavidin-coated sensorship onto which biotin-collagelin was immobilized we observed binding of type I collagen to the surface (FIG. 2A). […]
On the technique in general: Surface plasmon resonance follows binding to a sensor surface in real time, without labels.

In assay [4] the target is T4, human fibronectin (Sigma) (human, UniProt P02751-8 32-2296, limits assumed).
T4 construct: Bought protein
T4 sequence (P02751 other isoform, or with tags, fused parts or gaps limits assumed): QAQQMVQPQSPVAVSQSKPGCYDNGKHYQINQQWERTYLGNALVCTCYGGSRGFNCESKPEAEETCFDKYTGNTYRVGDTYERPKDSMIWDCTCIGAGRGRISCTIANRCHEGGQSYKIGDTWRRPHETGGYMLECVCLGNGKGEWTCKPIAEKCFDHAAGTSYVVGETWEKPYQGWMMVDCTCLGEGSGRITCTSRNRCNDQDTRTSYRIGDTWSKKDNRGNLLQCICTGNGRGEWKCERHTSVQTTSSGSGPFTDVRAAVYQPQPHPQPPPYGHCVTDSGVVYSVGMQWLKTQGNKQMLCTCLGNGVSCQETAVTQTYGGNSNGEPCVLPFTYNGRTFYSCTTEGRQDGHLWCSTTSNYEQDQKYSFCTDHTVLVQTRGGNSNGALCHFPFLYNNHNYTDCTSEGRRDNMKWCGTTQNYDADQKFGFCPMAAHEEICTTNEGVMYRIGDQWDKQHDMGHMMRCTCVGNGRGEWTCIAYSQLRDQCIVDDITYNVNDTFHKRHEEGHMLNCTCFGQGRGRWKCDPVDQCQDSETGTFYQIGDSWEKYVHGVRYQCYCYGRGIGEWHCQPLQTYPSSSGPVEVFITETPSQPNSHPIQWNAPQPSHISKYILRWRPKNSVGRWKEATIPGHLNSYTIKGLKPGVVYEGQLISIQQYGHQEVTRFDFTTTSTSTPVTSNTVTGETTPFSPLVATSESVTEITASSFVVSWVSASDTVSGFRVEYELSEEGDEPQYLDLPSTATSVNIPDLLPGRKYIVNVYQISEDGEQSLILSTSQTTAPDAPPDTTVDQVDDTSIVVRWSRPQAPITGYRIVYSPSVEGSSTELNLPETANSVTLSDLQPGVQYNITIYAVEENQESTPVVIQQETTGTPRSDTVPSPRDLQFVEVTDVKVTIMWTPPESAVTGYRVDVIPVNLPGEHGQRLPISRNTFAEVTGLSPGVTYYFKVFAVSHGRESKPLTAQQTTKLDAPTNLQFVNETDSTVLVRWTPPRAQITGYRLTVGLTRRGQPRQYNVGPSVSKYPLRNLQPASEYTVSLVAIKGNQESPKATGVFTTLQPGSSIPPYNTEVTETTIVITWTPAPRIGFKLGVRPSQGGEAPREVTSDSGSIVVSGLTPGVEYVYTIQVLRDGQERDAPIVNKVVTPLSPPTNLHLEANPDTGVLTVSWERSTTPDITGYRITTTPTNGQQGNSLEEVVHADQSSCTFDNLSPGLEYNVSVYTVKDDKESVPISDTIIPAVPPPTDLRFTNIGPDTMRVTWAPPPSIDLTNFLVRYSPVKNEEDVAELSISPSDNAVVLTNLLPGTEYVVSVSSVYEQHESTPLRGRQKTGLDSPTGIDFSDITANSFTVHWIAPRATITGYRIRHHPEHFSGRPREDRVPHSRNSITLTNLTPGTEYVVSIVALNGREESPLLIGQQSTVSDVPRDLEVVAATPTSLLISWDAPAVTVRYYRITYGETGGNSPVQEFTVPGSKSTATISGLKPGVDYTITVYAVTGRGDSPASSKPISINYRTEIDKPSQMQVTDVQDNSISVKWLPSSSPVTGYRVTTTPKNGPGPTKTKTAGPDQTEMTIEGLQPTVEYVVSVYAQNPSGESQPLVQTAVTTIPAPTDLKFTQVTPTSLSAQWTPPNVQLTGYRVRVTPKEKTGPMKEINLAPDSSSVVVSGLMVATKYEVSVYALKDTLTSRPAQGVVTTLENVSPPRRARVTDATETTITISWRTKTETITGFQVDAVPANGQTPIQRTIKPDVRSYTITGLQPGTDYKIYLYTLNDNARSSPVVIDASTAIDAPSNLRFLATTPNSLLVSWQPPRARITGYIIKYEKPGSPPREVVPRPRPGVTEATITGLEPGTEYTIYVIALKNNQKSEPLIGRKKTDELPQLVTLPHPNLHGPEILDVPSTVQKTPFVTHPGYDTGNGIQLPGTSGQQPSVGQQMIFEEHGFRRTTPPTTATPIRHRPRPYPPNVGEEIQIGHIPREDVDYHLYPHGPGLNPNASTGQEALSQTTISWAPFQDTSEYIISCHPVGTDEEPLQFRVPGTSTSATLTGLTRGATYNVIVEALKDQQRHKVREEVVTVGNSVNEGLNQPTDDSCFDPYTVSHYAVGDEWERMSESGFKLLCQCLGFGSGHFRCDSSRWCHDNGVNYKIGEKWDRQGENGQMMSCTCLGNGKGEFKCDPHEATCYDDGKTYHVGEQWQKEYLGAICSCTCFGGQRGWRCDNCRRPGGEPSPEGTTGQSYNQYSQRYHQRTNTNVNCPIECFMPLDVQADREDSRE
Kind of assay: Solid phase assay: biotin-collagelin on coated fibronectin, detected with peroxidase-coupled extravidin [panel B]. On the procedure:
as §1, §2

B1: biotin-collagelin (peptide)
peptide: Biotin-SGSGCGPRVMHGLHLGDDEGPC-NH2
modifications: disulfide 5-22
SMILES: CSCC[C@@H]1NC(=O)[C@H](C(C)C)NC(=O)[C@H](CCCNC(=N)N)NC(=O)[C@@H]2CCCN2C(=O)CNC(=O)[C@@H](NC(=O)CNC(=O)[C@H](CO)NC(=O)CNC(=O)[C@H](CO)NC(=O)CCCC[C@@H]2SC[C@@H]3NC(=O)N[C@@H]32)CSSC[C@@H](C(N)=O)NC(=O)[C@@H]2CCCN2C(=O)CNC(=O)[C@H](CCC(=O)O)NC(=O)[C@H](CC(=O)O)NC(=O)[C@H](CC(=O)O)NC(=O)CNC(=O)[C@H](CC(C)C)NC(=O)[C@H](Cc2c[nH]cn2)NC(=O)[C@H](CC(C)C)NC(=O)CNC(=O)[C@H](Cc2c[nH]cn2)NC1=O
notes: also called biotinylated collagelin
As to B1, the figures for the binding result in assay [1], in assay [2] and in assay [4] were “no binding (tested: 25 µg/ml)”, “no binding (tested: 50 µg/mL (legend))” and “no binding (tested: 50 µg/mL (legend))”, respectively. The molecule further came in with an equilibrium dissociation constant (Kd) in assay [3] of 100 nM.
